Measured values taken from patent publication US20230272023A1 (HUMAN CELL, published 2023).
Substitutions are numbered along the chain they refer to. Numbers in names are those of the source.

Columns and labels:
[1] = target: T1, human TrkA on TF1 erythroleukemic cells (human, UniProt P04629 33-796); assay: cell-based or functional assay
[2] = target: T1, human TrkA on TF1 erythroleukemic cells; assay: cell-based or functional assay; remark: listed apart in the source
[3] = target: T2, TrkA receptor immobilized on the Biacore chip (UniProt P04629 33-423, limits assumed); assay: SPR, Biacore 3000, 25 C, receptor amine-coupled on chip, NGF mutein as analyte, 1:1 Langmuir
Procedure: (§1) The binding experiments were performed on Biacore 3000 at 25° C. Receptors were directly immobilized by direct immobilization using EDC/NHS amine coupling kit and GE protocol. The receptor was coated until the desired RU. The unoccupied active sites on the chip were quenching by flowing 1 M ethanol amine. […] Data were analyzed using Biacore 3000 bia evaluation software (Biacore) using the values after reference subtraction. KD was determined by applying either local (for scouting) or global (full kinetics) 1:1 Langmuir fitting model. Full kinetics was performed with the range of analyte at a 2-fold serial dilution and flowed over the ligand from lowest to highest concentration range.

[4] = target: T2, TrkA receptor immobilized on the …; assay: SPR, Biacore 3000; Table 4 column Binding affinity (nM), TrkA receptor
Procedure: as §1

[5] = target: T2, TrkA receptor immobilized on the …; assay: SPR, Biacore 3000; against NGF wt
Procedure: as §1

[6] = target: T3, p75^NTR receptor immobilized on the Biacore chip (UniProt P08138 29-250); assay: SPR, Biacore 3000; against NGF wt
T3 sequence (looked up): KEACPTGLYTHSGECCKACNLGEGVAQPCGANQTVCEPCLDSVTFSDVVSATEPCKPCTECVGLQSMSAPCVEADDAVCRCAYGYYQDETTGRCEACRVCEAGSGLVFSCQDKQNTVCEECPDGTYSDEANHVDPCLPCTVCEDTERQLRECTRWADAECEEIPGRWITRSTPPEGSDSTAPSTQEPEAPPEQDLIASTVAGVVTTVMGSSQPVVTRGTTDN
Procedure: as §1

[7] = target: T3, p75^NTR receptor immobilized on the …; assay: SPR, Biacore 3000, 25 C, receptor amine-coupled on chip, NGF mutein as analyte
Procedure: as §1

[8] = target: T3, p75^NTR receptor immobilized on the …; assay: SPR, Biacore 3000; Table 4 column Binding affinity (nM), P75^NTR
Procedure: as §1

[9] = target: T1, human TrkA on TF1 erythroleukemic cells; assay: cell-based or functional assay; remark: listed apart in the source
[10] = target: T2, TrkA receptor immobilized on the …; assay: SPR, Biacore 3000; ratio of the affinity for TrkA over that for p75^NTR
Procedure: as §1

T1 sequence (P04629 33-796): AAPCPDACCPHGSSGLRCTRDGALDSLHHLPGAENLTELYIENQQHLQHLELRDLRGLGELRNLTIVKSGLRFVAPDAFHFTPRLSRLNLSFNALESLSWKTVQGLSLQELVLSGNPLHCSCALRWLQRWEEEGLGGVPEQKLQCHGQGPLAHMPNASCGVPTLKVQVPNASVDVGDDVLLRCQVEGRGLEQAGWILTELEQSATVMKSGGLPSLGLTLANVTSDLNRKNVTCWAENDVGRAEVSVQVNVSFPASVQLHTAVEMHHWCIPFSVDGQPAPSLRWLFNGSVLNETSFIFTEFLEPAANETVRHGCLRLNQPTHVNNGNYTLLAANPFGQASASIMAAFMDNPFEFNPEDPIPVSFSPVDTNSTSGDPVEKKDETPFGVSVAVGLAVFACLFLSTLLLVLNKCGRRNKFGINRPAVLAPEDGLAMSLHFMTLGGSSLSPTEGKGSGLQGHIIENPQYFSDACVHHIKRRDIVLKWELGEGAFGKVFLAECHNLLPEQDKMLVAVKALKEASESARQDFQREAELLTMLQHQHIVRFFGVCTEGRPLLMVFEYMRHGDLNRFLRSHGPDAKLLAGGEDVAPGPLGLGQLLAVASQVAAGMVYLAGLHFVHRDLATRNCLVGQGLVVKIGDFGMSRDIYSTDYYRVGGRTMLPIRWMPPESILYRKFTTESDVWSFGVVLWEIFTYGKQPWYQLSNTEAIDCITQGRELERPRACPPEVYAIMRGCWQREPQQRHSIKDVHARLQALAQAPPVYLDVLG
T2 sequence (P04629 33-423 limits assumed): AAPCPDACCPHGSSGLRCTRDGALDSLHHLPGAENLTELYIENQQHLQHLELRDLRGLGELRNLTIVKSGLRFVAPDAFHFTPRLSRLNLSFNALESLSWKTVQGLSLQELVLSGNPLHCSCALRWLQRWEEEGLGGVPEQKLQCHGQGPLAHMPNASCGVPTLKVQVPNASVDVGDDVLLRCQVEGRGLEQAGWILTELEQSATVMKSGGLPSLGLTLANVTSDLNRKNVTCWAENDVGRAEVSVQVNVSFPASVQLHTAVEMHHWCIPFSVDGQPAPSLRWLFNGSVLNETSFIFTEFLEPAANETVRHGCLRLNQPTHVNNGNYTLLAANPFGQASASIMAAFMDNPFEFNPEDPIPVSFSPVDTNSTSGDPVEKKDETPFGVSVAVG

B1: NGF K34A/R69A (ligand)
chain: SSSHPIFHRGEFSVCDSVSVWVGDKTTATDIKGAEVMVLGEVNINNSVFKQYFFETKCRDPNPVDSGCAGIDSKHWNSYCTTTHTFVKALTMDGKQAAWRFIRIDTACVCVLSRKAVRRA
EC50 in TF-1 proliferation assay, protein kept 7 days at 4° C. [1]: 9.13 ng/mL

B2: NGF K34D/R69A (ligand)
chain: B1 chain with A34D
EC50 in TF-1 proliferation assay, protein kept 7 days at 4° C. [1]: 12.3 ng/mL

B3: NGF K34A/R69A/R100E (ligand)
chain: B1 chain with R100E
EC50 in TF-1 proliferation assay, protein kept 7 days at 4° C. [1]: 689 ng/mL

B4: NGF K34D/R100E (ligand)
chain: B1 chain with A34D, A69R, R100E
EC50 in TF-1 proliferation assay, protein kept 7 days at 4° C. [1]: 58.8 ng/mL

B5: NGF K34D/R69A/R100D (ligand)
chain: B1 chain with A34D, R100D
EC50 in TF-1 proliferation assay, protein kept 7 days at 4° C. [1]: 23 ng/mL

B6: NGF K34D/K32A (ligand)
chain: B1 chain with K32A, A34D, A69R
EC50 in TF-1 proliferation assay, 4° C. [2]: 1.91 ng/mL | EC50 in TF-1 proliferation assay, after storage at 55° C. [2]: 9.7 ng/mL

B7: NGF K34D/K32D (ligand)
chain: B1 chain with K32D, A34D, A69R
notes: Double mutein of mature human NGF; expressed in HEK293 cells; also called NGF34D/K32D; NGF34D/32 D
Kd [3]: 0.607 nM | koff [3]: 0.00398 s⁻¹ | kon [3]: 6.54e+06 M⁻¹ s⁻¹ | Kd [4]: 0.61 nM | binding affinity, % of wildtype [5]: 5.9 % of wildtype | fold reduction of binding affinity against wildtype [5]: 18 fold | fold reduction of binding affinity against wildtype [6]: 625 fold | Kd [7]: > 200 nM | Kd [8]: > 200 nM | TrkA receptor Bio-activity [9]: 2.62 ng/mL | Binding selectivity (TrkA/p75^NTR) [10]: > 328 fold | EC50 in TF-1 proliferation assay, 4° C. [2]: 2.62 ng/mL | EC50 in TF-1 proliferation assay, after storage at 55° C. [2]: 1.15 ng/mL
